To fix the notation:
B1: Phage-550 (peptide)
peptide: YCDGHAPEYLTKCL
notes: on phage, pIII fusion; cell for position 6 is missing in the printed row

The first test has as its target anti-CD28 Fab (SEQ ID NOs: 202, 203). Briefly: phage ELISA, Fab on plate. (In an ELISA, binding on a coated surface is turned into a signal by an enzyme label.)
Target sequence in this assay (VH, as listed by the source, chain 1 of 2): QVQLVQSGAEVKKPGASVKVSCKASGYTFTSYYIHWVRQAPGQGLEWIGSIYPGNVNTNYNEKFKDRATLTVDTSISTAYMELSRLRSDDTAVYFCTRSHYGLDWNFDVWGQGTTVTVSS
Target sequence in this assay (VL, as listed by the source, chain 2 of 2): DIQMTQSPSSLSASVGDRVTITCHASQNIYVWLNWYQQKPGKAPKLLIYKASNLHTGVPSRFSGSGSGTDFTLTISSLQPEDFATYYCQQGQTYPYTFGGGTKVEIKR
For PCSAGVTYAWLYCV [Phage-1140], the “Anti-CD28 Fab signal” value came to 1.41.

With MCAAGAAWAWPLCL [Phage-1141], the “Anti-CD28 Fab signal” value is 1.4.

With SCSAGASLQLSQCF [Phage-1129], the “Anti-CD28 Fab signal” value was determined as 1.41.

On to LCAAGAHYSWPACF [Phage-1139], for which the “Anti-CD28 Fab signal” value stood at 1.41.

Turning to GCAAGASYPWPACL [Phage-1135], the “Anti-CD28 Fab signal” value was 1.41.

Turning to TCSAGATYTWPVCF [Phage-1201], the “Anti-CD28 Fab signal” value was determined as 1.13.

As to TCAAGATYSWPSCF [Phage-1204], the “Anti-CD28 Fab signal” value is 1.1.

TCSAGATYSWPLCF [Phage-1203]: the “Anti-CD28 Fab signal” value stood at 1.12.

For RCAAGFHYSWPNCF [Phage-1134], the “Anti-CD28 Fab signal” value amounted to 1.41.

As to TCSAGATYSWPACL [Phage-1137], the “Anti-CD28 Fab signal” value came to 1.41.

Turning to TCAAGASWNWPACE [Phage-1138], the “Anti-CD28 Fab signal” value turned out to be 1.41.

In the case of TCSAGAHYPWPICL [Phage-1131], the “Anti-CD28 Fab signal” value is 1.41.

With TCAAGASYPWPLCV [Phage-1142], the “Anti-CD28 Fab signal” value is 1.4.

In the case of PCAAGAMWPWPVCL [Phage-1136], the “Anti-CD28 Fab signal” value amounted to 1.41.

Turning to RCSFRFITLAEACV [Phage-1130], the “Anti-CD28 Fab signal” value was 1.41.

LCSAGFLFQWSTCL [Phage-1133]: the “Anti-CD28 Fab signal” value is 1.41.

Consider TCAAGAQFAWPLCL [Phage-1132], for which the “Anti-CD28 Fab signal” value worked out at 1.41.

Another test addresses T1, anti-CD28 Fab (SEQ ID NOs: 202, 203).
T1 construct: biotinylated and captured on neutravidin coated plates in the phage ELISA
Briefly: phage ELISA on captured Fab.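 Also: ELISA with clonal phage supernatants added to wells preincubated with CD28 antigen or with blocking buffer only, bound phage detected by HRP-conjugated anti-M13 antibody.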
T1 sequence (VH, as listed by the source, chain 1 of 2): as the sequence (VH, as listed by the source, chain 1 of 2) above
T1 sequence (VL, as listed by the source, chain 2 of 2): as the sequence (VL, as listed by the source, chain 2 of 2) above
Protocol: (§1) Clonal phage were harvested as crude supernatants and screened via standard ELISAs. […] Prior to the addition of clonal phage, wells were incubated with blocking buffer and CD28 antigen or blocking buffer alone. Without washing or aspirating, clonal phage supernatants were then added to the wells and incubated for a short time. Wells were then washed followed by detection of bound phage using a horse radish conjugated anti-M13 antibody.
Regarding YCDGHSVEYLDKCL (on phage, pIII fusion) [Phage-553], the “Anti-CD28 Fab (SEQ ID NOs: 202, 203) signal” value was 1.53.

YCEGHSAMYIWKCL (on phage, pIII fusion) [Phage-558]: the “Anti-CD28 Fab (SEQ ID NOs: 202, 203) signal” value was found to be 1.52.

On to YCDGHLQIYMGKCL (on phage, pIII fusion) [Phage-552], for which the “Anti-CD28 Fab (SEQ ID NOs: 202, 203) signal” value is 1.53.

As for YCEGHLAIYQKKCL (on phage, pIII fusion) [Phage-592], the “Anti-CD28 Fab (SEQ ID NOs: 202, 203) signal” value worked out at 1.44.

For YCDGHKAEYMQKCL (on phage, pIII fusion) [Phage-565], the “Anti-CD28 Fab (SEQ ID NOs: 202, 203) signal” value was found to be 1.5.

Take YCEGHLGQYMEKCL (on phage, pIII fusion) [Phage-548]: the “Anti-CD28 Fab (SEQ ID NOs: 202, 203) signal” value is 1.54.

For the molecule B1, the “Anti-CD28 Fab (SEQ ID NOs: 202, 203) signal” value is 1.53.

Regarding YCSGHLPQYLEKCL (on phage, pIII fusion) [Phage-567], the “Anti-CD28 Fab (SEQ ID NOs: 202, 203) signal” value was 1.5.

As for YCEGHSEEFMSKCL (on phage, pIII fusion) [Phage-532], the “Anti-CD28 Fab (SEQ ID NOs: 202, 203) signal” value came to 1.57.

As to YCDGHLPEYLAKCL (on phage, pIII fusion) [Phage-555], the “Anti-CD28 Fab (SEQ ID NOs: 202, 203) signal” value came out at 1.52.

On to YCEGHIMQYMAQCL (on phage, pIII fusion) [Phage-570], for which the “Anti-CD28 Fab (SEQ ID NOs: 202, 203) signal” value was 1.49.

On to YCDGHLPEYMNQCL (on phage, pIII fusion) [Phage-597], for which the “Anti-CD28 Fab (SEQ ID NOs: 202, 203) signal” value came out at 1.44.

Turning to YCDGHLAVYMAKCL (on phage, pIII fusion) [Phage-556], the “Anti-CD28 Fab (SEQ ID NOs: 202, 203) signal” value was found to be 1.52.

Consider YCEGHLPQYMTKCI (on phage, pIII fusion) [Phage-590], for which the “Anti-CD28 Fab (SEQ ID NOs: 202, 203) signal” value was determined as 1.44.

Consider YCDGHAEEYMAKCL (on phage, pIII fusion) [Phage-588], for which the “Anti-CD28 Fab (SEQ ID NOs: 202, 203) signal” value was determined as 1.45.

As to YCDGHLPIYQAKCL (on phage, pIII fusion) [Phage-571], the “Anti-CD28 Fab (SEQ ID NOs: 202, 203) signal” value was 1.49.

With YCEGHLGIYMTKCL (on phage, pIII fusion) [Phage-530], the “Anti-CD28 Fab (SEQ ID NOs: 202, 203) signal” value stood at 1.57.

Regarding YCAGHLEEYMWKCL (on phage, pIII fusion) [Phage-559], the “Anti-CD28 Fab (SEQ ID NOs: 202, 203) signal” value was found to be 1.51.

Take YCDGHHKEYLLKCL (on phage, pIII fusion) [Phage-568]: the “Anti-CD28 Fab (SEQ ID NOs: 202, 203) signal” value worked out at 1.49.

Turning to YCAGHLPQYIQKCL (on phage, pIII fusion) [Phage-591], the “Anti-CD28 Fab (SEQ ID NOs: 202, 203) signal” value was determined as 1.44.

As to YCEGHSQEYMAKCL (on phage, pIII fusion) [Phage-596], the “Anti-CD28 Fab (SEQ ID NOs: 202, 203) signal” value amounted to 1.44.

In the case of YCDGHSEQYIAKCL (on phage, pIII fusion) [Phage-572], the “Anti-CD28 Fab (SEQ ID NOs: 202, 203) signal” value was 1.49.

With YCDGHSWQYMWKCI (on phage, pIII fusion) [Phage-531], the “Anti-CD28 Fab (SEQ ID NOs: 202, 203) signal” value worked out at 1.57.

For the molecule YCAGHLPVYMDKCL (on phage, pIII fusion) [Phage-557], the “Anti-CD28 Fab (SEQ ID NOs: 202, 203) signal” value is 1.52.

In the case of YCEGHAPVYMFKCL (on phage, pIII fusion) [Phage-547], the “Anti-CD28 Fab (SEQ ID NOs: 202, 203) signal” value came to 1.54.

With YCDGHNFQYMEKCL (on phage, pIII fusion) [Phage-598], the “Anti-CD28 Fab (SEQ ID NOs: 202, 203) signal” value stood at 1.44.

Turning to YCDGHLAIYMWKCL (on phage, pIII fusion) [Phage-587], the “Anti-CD28 Fab (SEQ ID NOs: 202, 203) signal” value turned out to be 1.45.

On to YCEGHAVEYMAKCL (on phage, pIII fusion) [Phage-593], for which the “Anti-CD28 Fab (SEQ ID NOs: 202, 203) signal” value is 1.44.

Consider YCQGHIEPYLAKCL (on phage, pIII fusion) [Phage-586], for which the “Anti-CD28 Fab (SEQ ID NOs: 202, 203) signal” value turned out to be 1.46.

As to YCDGHAWQYMWKCL (on phage, pIII fusion) [Phage-554], the “Anti-CD28 Fab (SEQ ID NOs: 202, 203) signal” value is 1.53.

Take YCDGHNGVYWWKCI (on phage, pIII fusion) [Phage-549]: the “Anti-CD28 Fab (SEQ ID NOs: 202, 203) signal” value is 1.53.

On to YCDGHLALHMKKCL (on phage, pIII fusion) [Phage-569], for which the “Anti-CD28 Fab (SEQ ID NOs: 202, 203) signal” value worked out at 1.49.

As to YCEGHSIQYMTKCL (on phage, pIII fusion) [Phage-551], the “Anti-CD28 Fab (SEQ ID NOs: 202, 203) signal” value stood at 1.53.

A further test has the same target. Briefly: phage ELISA on captured Fab, wells pre-incubated with CD28 antigen (competitor).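 Also: clonal phage ELISA with wells pretreated with CD28 plus blocking buffer before phage addition, bound phage detected by HRP-linked anti-M13 antibody, reference wells got blocking buffer only.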
Target sequence in this assay (VH, as listed by the source, chain 1 of 2): as the sequence (VH, as listed by the source, chain 1 of 2) above
Target sequence in this assay (VL, as listed by the source, chain 2 of 2): as the sequence (VL, as listed by the source, chain 2 of 2) above
Protocol: as §1
Regarding YCDGHSVEYLDKCL (on phage, pIII fusion) [Phage-553], the “Anti-CD28 Fab signal in the presence of CD28” value (from here on “Anti-CD28 Fab signal … of CD28”) amounted to 0.08.

In the case of YCEGHSAMYIWKCL (on phage, pIII fusion) [Phage-558], the “Anti-CD28 Fab signal … of CD28” value is 0.1.

In the case of YCDGHLQIYMGKCL (on phage, pIII fusion) [Phage-552], the “Anti-CD28 Fab signal … of CD28” value turned out to be 0.06.

With YCEGHLAIYQKKCL (on phage, pIII fusion) [Phage-592], the “Anti-CD28 Fab signal … of CD28” value is 0.06.

On to YCDGHKAEYMQKCL (on phage, pIII fusion) [Phage-565], for which the “Anti-CD28 Fab signal … of CD28” value was 0.06.

Take YCEGHLGQYMEKCL (on phage, pIII fusion) [Phage-548]: the “Anti-CD28 Fab signal … of CD28” value was determined as 0.08.

B1: the “Anti-CD28 Fab signal … of CD28” value was determined as 0.06.

With YCSGHLPQYLEKCL (on phage, pIII fusion) [Phage-567], the “Anti-CD28 Fab signal … of CD28” value came out at 0.31.

As to YCEGHSEEFMSKCL (on phage, pIII fusion) [Phage-532], the “Anti-CD28 Fab signal … of CD28” value was determined as 0.08.

With YCDGHLPEYLAKCL (on phage, pIII fusion) [Phage-555], the “Anti-CD28 Fab signal … of CD28” value was determined as 0.06.

Turning to YCEGHIMQYMAQCL (on phage, pIII fusion) [Phage-570], the “Anti-CD28 Fab signal … of CD28” value was found to be 0.06.

Take YCDGHLPEYMNQCL (on phage, pIII fusion) [Phage-597]: the “Anti-CD28 Fab signal … of CD28” value worked out at 0.07.

Turning to YCDGHLAVYMAKCL (on phage, pIII fusion) [Phage-556], the “Anti-CD28 Fab signal … of CD28” value came to 0.08.

As for YCEGHLPQYMTKCI (on phage, pIII fusion) [Phage-590], the “Anti-CD28 Fab signal … of CD28” value came to 0.08.

On to YCDGHAEEYMAKCL (on phage, pIII fusion) [Phage-588], for which the “Anti-CD28 Fab signal … of CD28” value amounted to 0.06.

For YCDGHLPIYQAKCL (on phage, pIII fusion) [Phage-571], the “Anti-CD28 Fab signal … of CD28” value turned out to be 0.1.

As for YCEGHLGIYMTKCL (on phage, pIII fusion) [Phage-530], the “Anti-CD28 Fab signal … of CD28” value turned out to be 0.08.

Turning to YCAGHLEEYMWKCL (on phage, pIII fusion) [Phage-559], the “Anti-CD28 Fab signal … of CD28” value is 0.08.

Consider YCDGHHKEYLLKCL (on phage, pIII fusion) [Phage-568], for which the “Anti-CD28 Fab signal … of CD28” value amounted to 0.06.

As for YCAGHLPQYIQKCL (on phage, pIII fusion) [Phage-591], the “Anti-CD28 Fab signal … of CD28” value amounted to 0.07.

As to YCEGHSQEYMAKCL (on phage, pIII fusion) [Phage-596], the “Anti-CD28 Fab signal … of CD28” value came to 0.06.

In the case of YCDGHSEQYIAKCL (on phage, pIII fusion) [Phage-572], the “Anti-CD28 Fab signal … of CD28” value was 0.08.

YCDGHSWQYMWKCI (on phage, pIII fusion) [Phage-531]: the “Anti-CD28 Fab signal … of CD28” value worked out at 0.09.

For the molecule YCAGHLPVYMDKCL (on phage, pIII fusion) [Phage-557], the “Anti-CD28 Fab signal … of CD28” value turned out to be 0.08.

As for YCEGHAPVYMFKCL (on phage, pIII fusion) [Phage-547], the “Anti-CD28 Fab signal … of CD28” value was 0.08.

Regarding YCDGHNFQYMEKCL (on phage, pIII fusion) [Phage-598], the “Anti-CD28 Fab signal … of CD28” value came out at 0.06.

In the case of YCDGHLAIYMWKCL (on phage, pIII fusion) [Phage-587], the “Anti-CD28 Fab signal … of CD28” value was 0.09.

Take YCEGHAVEYMAKCL (on phage, pIII fusion) [Phage-593]: the “Anti-CD28 Fab signal … of CD28” value is 0.07.

Turning to YCQGHIEPYLAKCL (on phage, pIII fusion) [Phage-586], the “Anti-CD28 Fab signal … of CD28” value turned out to be 0.05.

With YCDGHAWQYMWKCL (on phage, pIII fusion) [Phage-554], the “Anti-CD28 Fab signal … of CD28” value was determined as 0.07.

Take YCDGHNGVYWWKCI (on phage, pIII fusion) [Phage-549]: the “Anti-CD28 Fab signal … of CD28” value is 0.07.

For the molecule YCDGHLALHMKKCL (on phage, pIII fusion) [Phage-569], the “Anti-CD28 Fab signal … of CD28” value was 0.08.

YCEGHSIQYMTKCL (on phage, pIII fusion) [Phage-551]: the “Anti-CD28 Fab signal … of CD28” value stood at 0.13.

The values above are taken from US20260274955A1 (JANUX THERAPEUTICS, published 2026).
